Data on 20 variants can be found in IntAct's records for PubMed 34948388.

To fix the notation:
B1: Multifunctional methyltransferase subunit TRM112-like protein (Homo sapiens), Q9UI30 (parent)
chain: MKLLTHNLLSSHVRGVGSRGFPLRLQATEVRICPVEFNPNFVARMIPKVEWSAFLEAADNLRLIQVPKGPVEGYEENEEFLRTMHHLLLEVEVIEGTLQCPESGRMFPISRGIPNMLLSEEETES
partner: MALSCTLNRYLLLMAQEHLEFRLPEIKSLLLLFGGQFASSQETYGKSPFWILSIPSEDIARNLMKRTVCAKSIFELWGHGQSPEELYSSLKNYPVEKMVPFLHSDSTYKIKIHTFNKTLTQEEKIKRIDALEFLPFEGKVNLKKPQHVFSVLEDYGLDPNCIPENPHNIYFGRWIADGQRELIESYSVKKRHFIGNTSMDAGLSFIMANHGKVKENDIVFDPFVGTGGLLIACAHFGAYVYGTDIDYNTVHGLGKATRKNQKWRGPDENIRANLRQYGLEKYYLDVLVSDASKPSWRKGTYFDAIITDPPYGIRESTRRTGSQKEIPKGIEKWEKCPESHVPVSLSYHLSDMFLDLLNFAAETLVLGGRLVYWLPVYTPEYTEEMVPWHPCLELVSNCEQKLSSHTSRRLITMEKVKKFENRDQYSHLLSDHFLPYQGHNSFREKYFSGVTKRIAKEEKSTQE
B2: Multifunctional methyltransferase subunit TRM112-like protein (Homo sapiens), Q9UI30 (parent)
chain: B1 chain
partner: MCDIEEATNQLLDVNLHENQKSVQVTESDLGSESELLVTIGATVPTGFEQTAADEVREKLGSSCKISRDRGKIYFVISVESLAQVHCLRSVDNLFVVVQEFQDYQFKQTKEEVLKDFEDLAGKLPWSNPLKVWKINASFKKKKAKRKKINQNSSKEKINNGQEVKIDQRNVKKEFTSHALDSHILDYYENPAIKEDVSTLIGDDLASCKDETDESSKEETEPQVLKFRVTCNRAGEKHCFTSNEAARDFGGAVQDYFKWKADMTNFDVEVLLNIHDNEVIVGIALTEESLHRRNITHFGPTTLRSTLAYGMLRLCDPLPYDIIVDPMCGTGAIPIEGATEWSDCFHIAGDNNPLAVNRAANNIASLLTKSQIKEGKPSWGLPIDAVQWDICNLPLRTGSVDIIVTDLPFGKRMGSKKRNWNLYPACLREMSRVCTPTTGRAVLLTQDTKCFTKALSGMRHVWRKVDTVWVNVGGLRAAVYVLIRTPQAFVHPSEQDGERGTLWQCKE

The variants in the first assay derive from B1. Particulars: with trm11_human TRMT11, Q7Z4G4.
Consider MKLLTHNLLSSHVRGVGSRGFPLRLQATEVRICPVEFNPNFVARMIPKVEWSAFLEAADNLRLIQVPKGPVEGYEENEEFLRTMHHLLLEVEVIEGTLQCPESGRMAPISRGIPNMLLSEEETES [F107A], for which the “effect of a mutation on the interaction” value was “decreasing interaction strength”.
Same read-out and setting: the entry for MKLLTHNLLSSHVRGVGSRGFPLRLQATEVRICPVEFNPNFVARMIPKVAWSAFLEAADNLRLIQVPKGPVEGYEENEEFLRTMHHLLLEVEVIEGTLQCPESGRMFPISRGIPNMLLSEEETES [E50A] is “with no effect”.
Same read-out and setting: the entry for MKLLTHNLLSSHVRGVGSRGFPLRLQATEVRICPVEFNPNFVARMIPKVEWSAFLEAADNLRLIQVPKGPVEGYEENEEFLRTMHHLLLEVEVIEGTLQCPESGRMFPISRGAPNMLLSEEETES [I113A] is “with no effect”; for MKLLTHNLLSSHVRGVGSRGFPLRLQATEVRICPVEFNPNFVARMIPKVEWSAFLEAADNLRLIQVPKGPVEGYEENEEFLRTMHHLLLEVAVIEGTLQCPESGRMFPISRGIPNMLLSEEETES [E92A] it is “decreasing interaction strength”; for MKLLTHNLLSSHVRGVGSRGFPLRLQATEVRICPVEFNPNFVARMIPAVEWSAFLEAADNLRLIQVPKGPVEGYEENEEFLRTMHHLLLEVEVIEGTLQCPESGRMFPISRGIPNMLLSEEETES [K48A] it is “with no effect”.
The same measure, in the same setting: next, MKLLTHNLLSSHVRGVGSRGFPLRLQATEVRICPVEFNPNFVARMIPAVEWSAFLEAADNLRLIQVPKGPVEGYEENEEFLRTMHHLLLEVAVIEGTLQCPESGRMFPISRGIPNMLLSEEETES [K48A;E92A]: “disrupting interaction strength”.
As to MKLLTHNLLSSHVRGVGSRGFPLRLQATEVRICPVEFNPNFVARAIPKVEWSAFLEAADNLRLIQVPKGPVEGYEENEEFLRTMHHLLLEVEVIEGTLQCPESGRMFPISRGIPNMLLSEEETES [M45A], the “effect of a mutation on the interaction” value is “with no effect”.
Consider MKLLAHNLLSSHVRGVGSRGFPLRLQATEVRICPVEFNPNFVARMIPKVEWSAFLEAADNLRLIQVPKGPVEGYEENEEFLRTMHHLLLEVEVIEGTLQCPESGRMFPISRGIPNMLLSEEETES [T5A], for which the “effect of a mutation on the interaction” value is “disrupting interaction strength”.
In the case of MKLLTHNLLFSHVRGVGSRGFPLRLQATEVRICPVEFNPNFVARMIPKVEWSAFLEAADNLRLIQVPKGPVEGYEENEEFLRTMHHLLLEVEVIEGTLQCPESGRMFPISRGIPNMLLSEEETES [S10F], the “effect of a mutation on the interaction” value is recorded as “with no effect”.
Still for that read-out and setting: the entry for MKLLTHNWLSSHVRGVGSRGFPLRLQATEVRICPVEFNPNFVARMIPKVEWSAFLEAADNLRLIQVPKGPVEGYEENEEFLRTMHHLLLEVEVIEGTLQCPESGRMFPISRGIPNMLLSEEETES [L8W] is “with no effect”.

In a further assay the parent is B2. Particulars: with thum3_human THUMPD3, Q9BV44.
Take MKLLTHNLLFSHVRGVGSRGFPLRLQATEVRICPVEFNPNFVARMIPKVEWSAFLEAADNLRLIQVPKGPVEGYEENEEFLRTMHHLLLEVEVIEGTLQCPESGRMFPISRGIPNMLLSEEETES [S10F]: the “effect of a mutation on the interaction” value is given as “with no effect”.
Regarding MKLLTHNLLSSHVRGVGSRGFPLRLQATEVRICPVEFNPNFVARMIPKVEWSAFLEAADNLRLIQVPKGPVEGYEENEEFLRTMHHLLLEVAVIEGTLQCPESGRMFPISRGIPNMLLSEEETES [E92A], the “effect of a mutation on the interaction” value is “disrupting interaction strength”.
For the variant MKLLTHNLLSSHVRGVGSRGFPLRLQATEVRICPVEFNPNFVARAIPKVEWSAFLEAADNLRLIQVPKGPVEGYEENEEFLRTMHHLLLEVEVIEGTLQCPESGRMFPISRGIPNMLLSEEETES [M45A], the “effect of a mutation on the interaction” value is reported as “disrupting interaction strength”.
Still for that read-out and setting: the entry for MKLLTHNLLSSHVRGVGSRGFPLRLQATEVRICPVEFNPNFVARMIPAVEWSAFLEAADNLRLIQVPKGPVEGYEENEEFLRTMHHLLLEVEVIEGTLQCPESGRMFPISRGIPNMLLSEEETES [K48A] is “disrupting interaction strength”.
Same read-out and setting: the entry for MKLLAHNLLSSHVRGVGSRGFPLRLQATEVRICPVEFNPNFVARMIPKVEWSAFLEAADNLRLIQVPKGPVEGYEENEEFLRTMHHLLLEVEVIEGTLQCPESGRMFPISRGIPNMLLSEEETES [T5A] is “disrupting interaction strength”.
The same measure, in the same setting: the entry for MKLLTHNLLSSHVRGVGSRGFPLRLQATEVRICPVEFNPNFVARMIPKVEWSAFLEAADNLRLIQVPKGPVEGYEENEEFLRTMHHLLLEVEVIEGTLQCPESGRMFPISRGAPNMLLSEEETES [I113A] is “disrupting interaction strength”; for MKLLTHNLLSSHVRGVGSRGFPLRLQATEVRICPVEFNPNFVARMIPAVEWSAFLEAADNLRLIQVPKGPVEGYEENEEFLRTMHHLLLEVAVIEGTLQCPESGRMFPISRGIPNMLLSEEETES [K48A;E92A] it is “disrupting interaction strength”.
On to MKLLTHNWLSSHVRGVGSRGFPLRLQATEVRICPVEFNPNFVARMIPKVEWSAFLEAADNLRLIQVPKGPVEGYEENEEFLRTMHHLLLEVEVIEGTLQCPESGRMFPISRGIPNMLLSEEETES [L8W], for which the “effect of a mutation on the interaction” value is “disrupting interaction strength”.
Still for that read-out and setting: the entry for MKLLTHNLLSSHVRGVGSRGFPLRLQATEVRICPVEFNPNFVARMIPKVAWSAFLEAADNLRLIQVPKGPVEGYEENEEFLRTMHHLLLEVEVIEGTLQCPESGRMFPISRGIPNMLLSEEETES [E50A] is “with no effect”; for MKLLTHNLLSSHVRGVGSRGFPLRLQATEVRICPVEFNPNFVARMIPKVEWSAFLEAADNLRLIQVPKGPVEGYEENEEFLRTMHHLLLEVEVIEGTLQCPESGRMAPISRGIPNMLLSEEETES [F107A] it is “disrupting interaction strength”.
